Eight molecules from patent US20170355757A1 (Regeneron, published 2017) can be followed below.

Changes are numbered by the printed parent chain. Names and notes keep the numbering of the source.

T1: monkey C5-mmh (monkey, UniProt P01031 19-1676 (human entry), limits assumed)
T1 construct: Expressed with a C-terminal myc-myc-hexahistidine tag
T1 chain: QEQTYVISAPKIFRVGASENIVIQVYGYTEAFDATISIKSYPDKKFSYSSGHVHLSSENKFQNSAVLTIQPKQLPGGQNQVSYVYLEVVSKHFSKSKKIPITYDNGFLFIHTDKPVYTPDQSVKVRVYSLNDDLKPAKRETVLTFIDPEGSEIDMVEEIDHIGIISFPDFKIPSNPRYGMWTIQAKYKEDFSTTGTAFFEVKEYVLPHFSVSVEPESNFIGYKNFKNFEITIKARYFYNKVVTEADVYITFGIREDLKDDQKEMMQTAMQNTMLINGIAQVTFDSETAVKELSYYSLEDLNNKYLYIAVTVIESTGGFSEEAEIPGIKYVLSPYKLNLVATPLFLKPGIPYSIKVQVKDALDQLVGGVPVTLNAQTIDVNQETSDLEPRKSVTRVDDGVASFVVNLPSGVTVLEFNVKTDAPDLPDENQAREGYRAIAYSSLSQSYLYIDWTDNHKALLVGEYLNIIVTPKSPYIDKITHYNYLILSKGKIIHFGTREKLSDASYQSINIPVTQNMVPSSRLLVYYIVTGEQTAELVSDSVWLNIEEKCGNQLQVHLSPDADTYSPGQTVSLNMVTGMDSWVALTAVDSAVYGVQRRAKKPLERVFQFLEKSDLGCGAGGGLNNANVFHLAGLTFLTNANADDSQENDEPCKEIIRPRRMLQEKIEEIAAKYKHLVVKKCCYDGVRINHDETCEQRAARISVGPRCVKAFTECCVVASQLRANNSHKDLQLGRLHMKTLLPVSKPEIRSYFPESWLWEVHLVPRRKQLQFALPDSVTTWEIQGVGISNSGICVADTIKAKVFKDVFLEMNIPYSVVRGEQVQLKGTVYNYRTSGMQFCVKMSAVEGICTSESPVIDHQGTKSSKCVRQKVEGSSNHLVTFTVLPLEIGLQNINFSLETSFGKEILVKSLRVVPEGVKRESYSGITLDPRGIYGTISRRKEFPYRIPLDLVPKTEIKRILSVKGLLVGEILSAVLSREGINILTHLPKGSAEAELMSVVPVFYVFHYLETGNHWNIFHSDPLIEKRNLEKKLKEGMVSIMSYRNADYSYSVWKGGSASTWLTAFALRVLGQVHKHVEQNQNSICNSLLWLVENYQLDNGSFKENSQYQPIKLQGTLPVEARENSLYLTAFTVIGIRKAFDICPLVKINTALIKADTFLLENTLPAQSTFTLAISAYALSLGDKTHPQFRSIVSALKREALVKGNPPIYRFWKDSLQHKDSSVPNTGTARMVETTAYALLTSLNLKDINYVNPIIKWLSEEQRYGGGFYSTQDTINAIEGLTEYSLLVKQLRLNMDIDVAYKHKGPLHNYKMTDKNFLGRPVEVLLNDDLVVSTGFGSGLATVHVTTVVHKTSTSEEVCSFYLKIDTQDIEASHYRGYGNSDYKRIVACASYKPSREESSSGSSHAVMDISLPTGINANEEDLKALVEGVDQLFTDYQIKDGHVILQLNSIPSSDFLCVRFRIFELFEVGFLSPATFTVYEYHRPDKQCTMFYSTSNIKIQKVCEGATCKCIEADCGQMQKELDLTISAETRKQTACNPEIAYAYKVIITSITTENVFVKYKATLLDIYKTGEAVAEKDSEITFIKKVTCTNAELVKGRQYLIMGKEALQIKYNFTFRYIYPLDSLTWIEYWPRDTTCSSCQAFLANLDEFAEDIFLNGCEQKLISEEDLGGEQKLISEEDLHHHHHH

B1: H4H12166P2 (antibody, human IgG4, V domains shown)
VH: QVQLQESGPGLVKPSETLSLTCTVSGDSVSSSYWTWIRQPPGKGLEWIGYIYYSGSSNYNPSLKSRATISVDTSKNQFSLKLSSVTAADTAVYYCAREGNVDTTMIFDYWGQGTLVTVSS
VL: AIQMTQSPSSLSASVGDRVTITCRASQGIRNDLGWYQQKPGKAPKLLIYAASSLQSGVPSRFAGRGSGTDFTLTISSLQPEDFATYYCHQDFNYPWTFGQGTKVEIK
notes: human IgG4 Fc with S108P hinge mutation
B2: H4H12166P8 (antibody, human IgG4, V domains shown)
VH: B1 VH with T103H
VL: B1 VL
notes: as for B1
B3: H4H12166P6 (antibody, human IgG4, V domains shown)
VH: B1 VH with T103H
VL: B1 VL with H89L
notes: as for B1
B4: H4H12166P5 (antibody, human IgG4, V domains shown)
VH: B1 VH with F107H
VL: B1 VL with H89L
notes: as for B1
B5: H4H12166P9 (antibody, human IgG4, V domains shown)
VH: B1 VH with T103H
VL: B1 VL with H89L, T97H
notes: as for B1
B6: H4H12166P7 (antibody, human IgG4, V domains shown)
VH: B1 VH with G99H
VL: B1 VL with H89L, T97H
notes: as for B1
B7: H4H12166P10 (antibody, human IgG4, V domains shown)
VH: B1 VH with F107H
VL: B1 VL with H89L, T97H
notes: as for B1
B8: H4H12166P4 (antibody, human IgG4, V domains shown)
VH: B1 VH
VL: B1 VL with H89L, T97H
notes: as for B1

One assay deals with T2, Human C5 (human, UniProt P01031 19-1676).
T2 construct: The natural protein has a beta and an alpha chain; also called complement factor 5; complement component 5
Put plainly: SPR, mAb captured by anti-hFc, 37C. As for the experimental part:
(§1) Equilibrium dissociation constants (KD values) for C5 binding to purified anti-C5 antibodies were determined using a real-time surface plasmon resonance biosensor assay on a Biacore T200 instrument. The Biacore sensor surface was derivatized by amine coupling with a monoclonal mouse anti-human Fc antibody (GE Healthcare, # BR-1008-39) to capture anti-C5 antibodies expressed with human Fc constant regions. Biacore binding studies were conducted in HBST running buffer (0.01M HEPES pH 7.4, 0.15M NaCl, 3 mM EDTA, 0.05% v/v Surfactant P20).
(§2) Human C5 was obtained from a commercial source (EMD). Other C5 reagents were expressed with a C-terminal myc-myc-hexahistidine tag (subsequently referred to as C5-mmh). […] Association of all the C5 reagents to each of the captured monoclonal antibodies was monitored for 3 minutes and their dissociation in HBST running buffer was monitored for 8 minutes. All the binding kinetics experiments were performed at either 25° C. or 37° C. Kinetic association (kₐ) and dissociation (kd) rate constants were determined by fitting the real-time sensorgrams to a 1:1 binding model using Scrubber 2.0c curve fitting software. Binding dissociation equilibrium constants (KD) and dissociative half-lives (t %) were calculated from the kinetic rate constants as: KD (M)=kd/kₐ and t_{1/2} (min)=In2/(60×kd)
The Kd is the free concentration of one partner at which half of the binding sites on the other are occupied at equilibrium, for simple one-to-one binding. By koff is commonly meant a measure of how fast the partners let go of each other. By kon is commonly meant the second-order rate constant of association. A word on the t½: it is the time needed for the level to fall by half in the phase considered. For B1, the “100 nM Human C5 Bound (RU)” value stood at 110 RU, the Kd is 1.29 nM, the koff is 0.00123 s⁻¹ and the kon is 950000 M⁻¹ s⁻¹. This molecule yielded a t½ of 9 min.

With B2, the “100 nM Human C5 Bound (RU)” value was determined as 98 RU, the Kd turned out to be 3.1 nM, the koff amounted to 0.00209 s⁻¹ and the kon was determined as 675000 M⁻¹ s⁻¹. Besides, the t½ was found to be 6 min.

B3: the “100 nM Human C5 Bound (RU)” value was determined as 157 RU, the Kd came out at 0.875 nM, the koff was found to be 0.000474 s⁻¹ and the kon was determined as 542000 M⁻¹ s⁻¹. This molecule also displayed a t½ of 24 min.

Regarding B4, the “100 nM Human C5 Bound (RU)” value was found to be 129 RU, binding was put at a Kd of 2.77 nM, the koff amounted to 0.00122 s⁻¹ and the kon is 440000 M⁻¹ s⁻¹. The same molecule had a t½ of 9 min.

On to B5, for which the “100 nM Human C5 Bound (RU)” value is 122 RU, the Kd stood at 1.7 nM, the koff came out at 0.000639 s⁻¹ and the kon came out at 375000 M⁻¹ s⁻¹. For the same molecule, the t½ turned out to be 18 min.

For B6, the “100 nM Human C5 Bound (RU)” value was 105 RU, binding was put at a Kd of 7.39 nM, the koff was 0.00258 s⁻¹ and the kon came out at 349000 M⁻¹ s⁻¹. Also, the t½ is 4 min.

Consider B7, for which the “100 nM Human C5 Bound (RU)” value amounted to 82 RU, binding was put at a Kd of 13.8 nM, the koff amounted to 0.00314 s⁻¹ and the on-rate (kon) turned out to be 227000 M⁻¹ s⁻¹. The t½ worked out at 4 min.

For B8, the “100 nM Human C5 Bound (RU)” value was 108 RU, binding was characterised by a dissociation constant (Kd) of 0.93 nM, the koff is 0.000469 s⁻¹ and the kon amounted to 505000 M⁻¹ s⁻¹. The same molecule showed a t½ of 25 min.

A further assay addresses T1, monkey C5-mmh. Briefly: SPR, mAb captured by anti-hFc, 25C. The method, then:
as §1, §2
A general note: SPR reads the build-up and loss of mass on a sensor chip optically.
For the molecule B1, the “100 nM monkey C5-mmh Bound (RU)” value came out at 71 RU, the Kd was 10.5 nM, the koff is 0.00316 s⁻¹ and the kon stood at 300000 M⁻¹ s⁻¹. In addition, the “t1/2” value was found to be 4 min.

With B2, the “100 nM monkey C5-mmh Bound (RU)” value was found to be 47 RU, the Kd stood at 21.6 nM, the koff is 0.00499 s⁻¹ and the kon came to 231000 M⁻¹ s⁻¹. Besides, the “t1/2” value was 2 min.

For the molecule B3, the “100 nM monkey C5-mmh Bound (RU)” value was found to be 94 RU, binding was put at a Kd of 11.1 nM, the koff was found to be 0.00266 s⁻¹ and the kon was 239000 M⁻¹ s⁻¹. The “t1/2” value worked out at 4 min.

Consider B4, for which the “100 nM monkey C5-mmh Bound (RU)” value was determined as 56 RU, the Kd was determined as 24 nM, the koff stood at 0.00346 s⁻¹ and the kon worked out at 144000 M⁻¹ s⁻¹. Besides, the “t1/2” value was found to be 3 min.

For the molecule B5, the “100 nM monkey C5-mmh Bound (RU)” value was 55 RU, the Kd was 18.7 nM, the dissociation rate constant (koff) came out at 0.00318 s⁻¹ and the kon was determined as 170000 M⁻¹ s⁻¹. In addition, the “t1/2” value was determined as 4 min.

With B6, the “100 nM monkey C5-mmh Bound (RU)” value turned out to be 36 RU, binding was put at a Kd of 46.5 nM, the dissociation rate constant (koff) is 0.00633 s⁻¹ and the on-rate (kon) was determined as 136000 M⁻¹ s⁻¹. Further, the “t1/2” value came out at 2 min.

With B7, the “100 nM monkey C5-mmh Bound (RU)” value was determined as 15 RU, binding was characterised by a dissociation constant (Kd) of 64.4 nM, the off-rate constant (koff) worked out at 0.00616 s⁻¹ and the kon is 95600 M⁻¹ s⁻¹. Also, the “t1/2” value came out at 2 min.

Take B8: the “100 nM monkey C5-mmh Bound (RU)” value was determined as 69 RU, binding was put at a Kd of 8.5 nM, the koff is 0.00178 s⁻¹ and the kon turned out to be 210000 M⁻¹ s⁻¹. The “t1/2” value came to 6 min.

Another assay deals with T2, Human C5. Put plainly: SPR, mAb captured by anti-hFc, 25C. As for the experimental part:
as §1, §2
For the molecule B1, the “100 nM Human C5 Bound (RU)” value stood at 95 RU, the Kd came out at 0.438 nM, the koff was 0.000361 s⁻¹ and the kon turned out to be 826000 M⁻¹ s⁻¹. Further, the t½ worked out at 32 min.

With B2, the “100 nM Human C5 Bound (RU)” value came to 91 RU, the Kd turned out to be 1.42 nM, the koff is 0.000686 s⁻¹ and the kon was 484000 M⁻¹ s⁻¹. In addition, the t½ stood at 17 min.

For B3, the “100 nM Human C5 Bound (RU)” value came to 131 RU, the Kd is 0.375 nM, the off-rate (koff) worked out at 0.000184 s⁻¹ and the kon was 489000 M⁻¹ s⁻¹. Also, the t½ was determined as 63 min.

As to B4, the “100 nM Human C5 Bound (RU)” value worked out at 110 RU, the Kd is 1.15 nM, the koff came to 0.000328 s⁻¹ and the kon stood at 285000 M⁻¹ s⁻¹. This molecule returned a t½ of 35 min.

On to B5, for which the “100 nM Human C5 Bound (RU)” value worked out at 100 RU; the affinity, expressed as Kd, was 0.794 nM; the koff was determined as 0.000264 s⁻¹; the kon stood at 332000 M⁻¹ s⁻¹. Moreover, the t½ was 44 min.

Turning to B6, the “100 nM Human C5 Bound (RU)” value came to 92 RU, binding was put at a Kd of 3.67 nM, the koff amounted to 0.00101 s⁻¹ and the kon is 274000 M⁻¹ s⁻¹. For the same molecule, the t½ stood at 11 min.

With B7, the “100 nM Human C5 Bound (RU)” value stood at 69 RU, the Kd was 8.38 nM, the off-rate (koff) stood at 0.00132 s⁻¹ and the kon came to 157000 M⁻¹ s⁻¹. Further, the t½ was found to be 9 min.

For B8, the “100 nM Human C5 Bound (RU)” value was 92 RU, the Kd worked out at 0.395 nM, the koff came out at 0.000176 s⁻¹ and the kon was found to be 446000 M⁻¹ s⁻¹. The t½ came out at 66 min.
